According to publication PMC6180346, “Two Faces of CwlM, an Essential PknB Substrate, in Mycobacterium tuberculosis” (Cell Reports, 2018):
Read-outs that look alike come from different tables or passages of the source.

Target: FhaA C-terminal FHA domain (UniProt P71590)

## CwlM 378-392 (from UniProt L7N653)
Sites T382
  binding against the reference: gained
Sites T386
  binding against the reference: gained
